Source: paper PMC7954794 (2021)

B1: S. cerevisiae Abp1 (full length; SH3 domain 535-592 mutated) / Hua2 (parent complex)
chain 1: MALEPIDYTTHSREIDAEYLKIVRGSDPDTTWLIISPNAKKEYEPESTGSSFHDFLQLFDETKVQYGLARVSPPGSDVEKIIIIGWCPDSAPLKTRASFAANFAAVANNLFKGYHVQVTARDEDDLDENELLMKISNAAGARYSIQTSSKQQGKASTPPVKKSFTPSKSPAPVSKKEPVKTPSPAPAAKISSRVNDNNDDDDWNEPELKERDFDQAPLKPNQSSYKPIGKIDLQKVIAEEKAKEDPRLVQKPTAAGSKIDPSSDIANLKNESKLKRDSEFNSFLGTTKPPSMTESSLKNDDDKVIKGFRNEKSPAQLWAERKAKQNSGNAETKAEAPKPEVPEDEPEGEPDVKDLKSKFEGLAASEKEEEEMENKFAPPPKKSEPTIISPKPFSKPQEPVKAEEAEQPKTDYKKIGNPLPGMHIEADNEEEPEENDDDWDDDEDEAAQPPLPSRNVASGAPVQKEEPEQEEIAPSLPSRNSIPAPKQEEAPEQAPEEEIEEEAEEAAPQLPSRSSAAPPPPPRRATPEKKPKENPWATAEYDYDAAEDNELTFVENDKIINIEFVDDDWWLGELEKDGSKGLFPSNYVSLGN
chain 2: MQQTKFGKMYLDHDSVVEYSEDEIVEADRITLGYKKRLSMIENQMRHLLEDFSLDVQQIEPILADLQKYYDAFLQLLQKRNKSLQCKRSTHQPVPSPMNSQTSTNAKVNLSGKLMKFQLNSVQKFDEENILRILQNKIEFEHYFQIDKGKKQKVLLLAVYQCLNGPTRLHKVLNIEGIIHNNSIRTILGKQVSSSKWTVFLYDVKLVLLAHRQDVPNLETSKMIVRYGDLFPCALYFKDHTAY

Variants of: B1
Experiment: DHFR protein-fragment complementation in yeast (Abp1-DHFR F[1,2] x partner-DHFR F[3]), deep mutational scanning, second methotrexate selection vs reference; S. cerevisiae, DHFR-PCA selection in liquid with methotrexate at 30 C, two 72 h selections (the score uses the second); reference = the pre-selection culture

| Variant | screen value |
| --- | --- |
| chain 1 E555M | 0.105 DMS score: mean over two replicates of log2(f_test/f_ref + 0.5)/ln 2, minus the synonymous-codon median (not a log2 … |
| chain 1 Y587H | -0.477 DMS score: mean over two replicates of log2(f_test/f_ref + 0.5)/ln 2, minus the synonymous-codon median (not a log2 … |
| chain 1 Y587I | -0.578 DMS score: mean over two replicates of log2(f_test/f_ref + 0.5)/ln 2, minus the synonymous-codon median (not a log2 … |
| chain 1 S579N | 0.51 DMS score: mean over two replicates of log2(f_test/f_ref + 0.5)/ln 2, minus the synonymous-codon median (not a log2 … |
| chain 1 D568Y | -2.08 DMS score: mean over two replicates of log2(f_test/f_ref + 0.5)/ln 2, minus the synonymous-codon median (not a log2 … |
| chain 1 D568N | -2.05 DMS score: mean over two replicates of log2(f_test/f_ref + 0.5)/ln 2, minus the synonymous-codon median (not a log2 … |
| chain 1 K558Q | -0.388 DMS score: mean over two replicates of log2(f_test/f_ref + 0.5)/ln 2, minus the synonymous-codon median (not a log2 … |
| chain 1 E575L | -0.106 DMS score: mean over two replicates of log2(f_test/f_ref + 0.5)/ln 2, minus the synonymous-codon median (not a log2 … |
| chain 1 D544V | 0.356 DMS score: mean over two replicates of log2(f_test/f_ref + 0.5)/ln 2, minus the synonymous-codon median (not a log2 … |
| chain 1 D544Y | -0.602 DMS score: mean over two replicates of log2(f_test/f_ref + 0.5)/ln 2, minus the synonymous-codon median (not a log2 … |
| chain 1 D544P | -0.888 DMS score: mean over two replicates of log2(f_test/f_ref + 0.5)/ln 2, minus the synonymous-codon median (not a log2 … |
| chain 1 D544W | 0.0871 DMS score: mean over two replicates of log2(f_test/f_ref + 0.5)/ln 2, minus the synonymous-codon median (not a log2 … |
| chain 1 E563R | -1.39 DMS score: mean over two replicates of log2(f_test/f_ref + 0.5)/ln 2, minus the synonymous-codon median (not a log2 … |
| chain 1 V554M | -0.0016 DMS score: mean over two replicates of log2(f_test/f_ref + 0.5)/ln 2, minus the synonymous-codon median (not a log2 … |
| chain 1 V554N | 0.128 DMS score: mean over two replicates of log2(f_test/f_ref + 0.5)/ln 2, minus the synonymous-codon median (not a log2 … |
| chain 1 V554D | 0.269 DMS score: mean over two replicates of log2(f_test/f_ref + 0.5)/ln 2, minus the synonymous-codon median (not a log2 … |

| Variant | screen value |
| --- | --- |
| chain 1 E540K | -2.41 DMS score: mean over two replicates of log2(f_test/f_ref + 0.5)/ln 2, minus the synonymous-codon median (not a log2 … |
| chain 1 T538N | -0.471 DMS score: mean over two replicates of log2(f_test/f_ref + 0.5)/ln 2, minus the synonymous-codon median (not a log2 … |
| chain 1 T538L | 0.677 DMS score: mean over two replicates of log2(f_test/f_ref + 0.5)/ln 2, minus the synonymous-codon median (not a log2 … |
| chain 1 P535E | 1.04 DMS score: mean over two replicates of log2(f_test/f_ref + 0.5)/ln 2, minus the synonymous-codon median (not a log2 … |
| chain 1 W536V | -0.259 DMS score: mean over two replicates of log2(f_test/f_ref + 0.5)/ln 2, minus the synonymous-codon median (not a log2 … |
| chain 1 F564E | 0.712 DMS score: mean over two replicates of log2(f_test/f_ref + 0.5)/ln 2, minus the synonymous-codon median (not a log2 … |
| chain 1 E573V | 0.415 DMS score: mean over two replicates of log2(f_test/f_ref + 0.5)/ln 2, minus the synonymous-codon median (not a log2 … |
| chain 1 N592E | 1.16 DMS score: mean over two replicates of log2(f_test/f_ref + 0.5)/ln 2, minus the synonymous-codon median (not a log2 … |
| chain 1 N592W | -0.139 DMS score: mean over two replicates of log2(f_test/f_ref + 0.5)/ln 2, minus the synonymous-codon median (not a log2 … |
| chain 1 N549E | 1.95 DMS score: mean over two replicates of log2(f_test/f_ref + 0.5)/ln 2, minus the synonymous-codon median (not a log2 … |
| chain 1 D548N | 0.0071 DMS score: mean over two replicates of log2(f_test/f_ref + 0.5)/ln 2, minus the synonymous-codon median (not a log2 … |
| chain 1 Y541L | -2.57 DMS score: mean over two replicates of log2(f_test/f_ref + 0.5)/ln 2, minus the synonymous-codon median (not a log2 … |
| chain 1 Y541V | -1.72 DMS score: mean over two replicates of log2(f_test/f_ref + 0.5)/ln 2, minus the synonymous-codon median (not a log2 … |
| chain 1 Y541S | -1.59 DMS score: mean over two replicates of log2(f_test/f_ref + 0.5)/ln 2, minus the synonymous-codon median (not a log2 … |
| chain 1 G591V | -0.0626 DMS score: mean over two replicates of log2(f_test/f_ref + 0.5)/ln 2, minus the synonymous-codon median (not a log2 … |

Continued, values first:

| screen value | Variant |
| --- | --- |
| 0.0243 DMS score: mean over two replicates of log2(f_test/f_ref + 0.5)/ln 2, minus the synonymous-codon median (not a log2 … | chain 1 K580F |
| -0.00598 DMS score: mean over two replicates of log2(f_test/f_ref + 0.5)/ln 2, minus the synonymous-codon median (not a log2 … | chain 1 K580S |
| -0.698 DMS score: mean over two replicates of log2(f_test/f_ref + 0.5)/ln 2, minus the synonymous-codon median (not a log2 … | chain 1 K580N |
| -0.984 DMS score: mean over two replicates of log2(f_test/f_ref + 0.5)/ln 2, minus the synonymous-codon median (not a log2 … | chain 1 K580E |
| 0.328 DMS score: mean over two replicates of log2(f_test/f_ref + 0.5)/ln 2, minus the synonymous-codon median (not a log2 … | chain 1 I560C |
| -0.751 DMS score: mean over two replicates of log2(f_test/f_ref + 0.5)/ln 2, minus the synonymous-codon median (not a log2 … | chain 1 N556M |
| -0.28 DMS score: mean over two replicates of log2(f_test/f_ref + 0.5)/ln 2, minus the synonymous-codon median (not a log2 … | chain 1 S579K |
| -0.407 DMS score: mean over two replicates of log2(f_test/f_ref + 0.5)/ln 2, minus the synonymous-codon median (not a log2 … | chain 1 S579C |
| -0.882 DMS score: mean over two replicates of log2(f_test/f_ref + 0.5)/ln 2, minus the synonymous-codon median (not a log2 … | chain 1 L590F |
| -0.21 DMS score: mean over two replicates of log2(f_test/f_ref + 0.5)/ln 2, minus the synonymous-codon median (not a log2 … | chain 1 E575C |
| -0.236 DMS score: mean over two replicates of log2(f_test/f_ref + 0.5)/ln 2, minus the synonymous-codon median (not a log2 … | chain 1 E575M |
| -0.362 DMS score: mean over two replicates of log2(f_test/f_ref + 0.5)/ln 2, minus the synonymous-codon median (not a log2 … | chain 1 D544N |
| -0.99 DMS score: mean over two replicates of log2(f_test/f_ref + 0.5)/ln 2, minus the synonymous-codon median (not a log2 … | chain 1 E563N |
| 0.446 DMS score: mean over two replicates of log2(f_test/f_ref + 0.5)/ln 2, minus the synonymous-codon median (not a log2 … | chain 1 V554F |
| -2.23 DMS score: mean over two replicates of log2(f_test/f_ref + 0.5)/ln 2, minus the synonymous-codon median (not a log2 … | chain 1 D567A |
| -0.495 DMS score: mean over two replicates of log2(f_test/f_ref + 0.5)/ln 2, minus the synonymous-codon median (not a log2 … | chain 1 I562L |
| -2.49 DMS score: mean over two replicates of log2(f_test/f_ref + 0.5)/ln 2, minus the synonymous-codon median (not a log2 … | chain 1 E540M |
| -0.352 DMS score: mean over two replicates of log2(f_test/f_ref + 0.5)/ln 2, minus the synonymous-codon median (not a log2 … | chain 1 V565N |
| -0.327 DMS score: mean over two replicates of log2(f_test/f_ref + 0.5)/ln 2, minus the synonymous-codon median (not a log2 … | chain 1 V565Q |
| -0.106 DMS score: mean over two replicates of log2(f_test/f_ref + 0.5)/ln 2, minus the synonymous-codon median (not a log2 … | chain 1 L551I |
| -2.24 DMS score: mean over two replicates of log2(f_test/f_ref + 0.5)/ln 2, minus the synonymous-codon median (not a log2 … | chain 1 E547H |
| 0.252 DMS score: mean over two replicates of log2(f_test/f_ref + 0.5)/ln 2, minus the synonymous-codon median (not a log2 … | chain 1 T538I |

| screen value | Variant |
| --- | --- |
| 0.342 DMS score: mean over two replicates of log2(f_test/f_ref + 0.5)/ln 2, minus the synonymous-codon median (not a log2 … | chain 1 P535S |
| 0.413 DMS score: mean over two replicates of log2(f_test/f_ref + 0.5)/ln 2, minus the synonymous-codon median (not a log2 … | chain 1 A546G |
| -0.179 DMS score: mean over two replicates of log2(f_test/f_ref + 0.5)/ln 2, minus the synonymous-codon median (not a log2 … | chain 1 A546V |
| -2.61 DMS score: mean over two replicates of log2(f_test/f_ref + 0.5)/ln 2, minus the synonymous-codon median (not a log2 … | chain 1 F564P |
| -0.283 DMS score: mean over two replicates of log2(f_test/f_ref + 0.5)/ln 2, minus the synonymous-codon median (not a log2 … | chain 1 E573I |
| 0.526 DMS score: mean over two replicates of log2(f_test/f_ref + 0.5)/ln 2, minus the synonymous-codon median (not a log2 … | chain 1 N592S |
| -0.621 DMS score: mean over two replicates of log2(f_test/f_ref + 0.5)/ln 2, minus the synonymous-codon median (not a log2 … | chain 1 T552K |
| -2.81 DMS score: mean over two replicates of log2(f_test/f_ref + 0.5)/ln 2, minus the synonymous-codon median (not a log2 … | chain 1 W569Q |
| -1.85 DMS score: mean over two replicates of log2(f_test/f_ref + 0.5)/ln 2, minus the synonymous-codon median (not a log2 … | chain 1 S585G |
| -0.527 DMS score: mean over two replicates of log2(f_test/f_ref + 0.5)/ln 2, minus the synonymous-codon median (not a log2 … | chain 1 G578A |
| 0.4 DMS score: mean over two replicates of log2(f_test/f_ref + 0.5)/ln 2, minus the synonymous-codon median (not a log2 … | chain 1 N549D |
| 2.18 DMS score: mean over two replicates of log2(f_test/f_ref + 0.5)/ln 2, minus the synonymous-codon median (not a log2 … | chain 1 N549C |
| 0.434 DMS score: mean over two replicates of log2(f_test/f_ref + 0.5)/ln 2, minus the synonymous-codon median (not a log2 … | chain 1 D548T |
| 2.04 DMS score: mean over two replicates of log2(f_test/f_ref + 0.5)/ln 2, minus the synonymous-codon median (not a log2 … | chain 1 N586C |
| -1.13 DMS score: mean over two replicates of log2(f_test/f_ref + 0.5)/ln 2, minus the synonymous-codon median (not a log2 … | chain 1 Y541D |
| -0.673 DMS score: mean over two replicates of log2(f_test/f_ref + 0.5)/ln 2, minus the synonymous-codon median (not a log2 … | chain 1 A545E |
| 0.128 DMS score: mean over two replicates of log2(f_test/f_ref + 0.5)/ln 2, minus the synonymous-codon median (not a log2 … | chain 1 S589H |
| 1.04 DMS score: mean over two replicates of log2(f_test/f_ref + 0.5)/ln 2, minus the synonymous-codon median (not a log2 … | chain 1 S589R |
| 0.838 DMS score: mean over two replicates of log2(f_test/f_ref + 0.5)/ln 2, minus the synonymous-codon median (not a log2 … | chain 1 S589Q |
| 0.474 DMS score: mean over two replicates of log2(f_test/f_ref + 0.5)/ln 2, minus the synonymous-codon median (not a log2 … | chain 1 G591I |
| -0.157 DMS score: mean over two replicates of log2(f_test/f_ref + 0.5)/ln 2, minus the synonymous-codon median (not a log2 … | chain 1 G591D |
| -0.189 DMS score: mean over two replicates of log2(f_test/f_ref + 0.5)/ln 2, minus the synonymous-codon median (not a log2 … | chain 1 G591Y |
